Data taken from PMC8597827, “The effect of S427F mutation on RXRα activity depends on its dimeric partner†”.

Target: RXRα WT (human, UniProt P19793 1-462)
Assay: EMSA; no ligand; two shifts; competed by 5x and 25x unlabeled DR1; 10 mM Tris HCl pH 8.0, 150 mM KCl, 0.5 mM EDTA, 0.1% Triton X-100, 12.5% glycerol, 0.2 mM DTT, 1 ug poly(dI-dC), 100 pmol probe in 20 uL; 10 min RT then 5 min 37 C; 5% PAGE in 0.5x TBE at 4 C
Conditions: protein: recombinant; chain copies: 2; blunt

RXRα WT, sequence (P19793 whole entry): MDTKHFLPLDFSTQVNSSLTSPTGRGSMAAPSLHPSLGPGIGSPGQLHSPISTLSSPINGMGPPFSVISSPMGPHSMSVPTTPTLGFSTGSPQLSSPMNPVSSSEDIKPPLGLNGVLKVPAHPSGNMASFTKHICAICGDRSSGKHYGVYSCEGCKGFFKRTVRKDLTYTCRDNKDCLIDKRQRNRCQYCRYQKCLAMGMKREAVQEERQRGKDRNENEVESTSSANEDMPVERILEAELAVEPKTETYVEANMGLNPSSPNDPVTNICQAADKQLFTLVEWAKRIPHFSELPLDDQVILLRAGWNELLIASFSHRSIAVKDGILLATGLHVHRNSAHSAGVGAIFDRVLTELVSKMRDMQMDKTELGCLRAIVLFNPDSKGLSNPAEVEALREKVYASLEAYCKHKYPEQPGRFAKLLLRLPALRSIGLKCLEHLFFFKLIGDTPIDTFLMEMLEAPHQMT

B1: DR1 (dsDNA)
DNA 1: TCGAGGGTAGGGGTCAGAGGTCACTCGTCGA
DNA 2: TCGACGAGTGACCTCTGACCCCTACCCTCGA
binding result: binds
